Residue numbers refer to the chain shown, from its start. In names and notes the source's numbering stands.

The chains are these.
T1: Snc2p-M2-His6 (R75E R79E K82E) reconstituted into liposomes (S. cerevisiae, UniProt P33328 1-115, R75E | R79E | K82E)
T1 sequence: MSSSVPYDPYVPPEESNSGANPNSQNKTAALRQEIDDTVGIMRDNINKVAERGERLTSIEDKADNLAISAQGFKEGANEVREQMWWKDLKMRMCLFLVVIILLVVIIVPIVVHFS

B1: GST-Snc2p fragment (28–92 aa) (domain or fragment)
chain: TAALRQEIDDTVGIMRDNINKVAERGERLTSIEDKADNLAISAQGFKRGANRVRKQMWWKDLKMR
B2: His-MBP-Sec9ct (416–651 aa) (domain or fragment)
chain: ARQQQEEDEAVDEIKQEIKFTKQSSVASTRNTLKMAQDAERAGMNTLGMLGHQSEQLNNVEGNLDLMKVQNKVADEKVAELKKLNRSILAVHVSNPFNSKRRRREREEQLKNRKIEEKLMREQTSQQLSQSTQRIEGAMNANNNISEVRERYQRKNVLEKAKRYQFENDEEDDEMELEIDRNLDQIQQVSNRLKKMALTTGKELDSQQKRLNNIEESTDDLDINLHMNTNRLAGIR
B3: GST-Snc2p (cytosolic domain of Snc2p, 1–92 aa, fused to GST) (domain or fragment)
chain: MSSSVPYDPYVPPEESNSGANPNSQNKTAALRQEIDDTVGIMRDNINKVAERGERLTSIEDKADNLAISAQGFKRGANRVRKQMWWKDLKMR
B4: GST-Snc2p R75A (domain or fragment)
chain: B3 chain with R75A
B5: GST-Snc2p E51R E54R (M6) (domain or fragment)
chain: B3 chain with E51R, E54R
B6: GST-Snc2p K82A (domain or fragment)
chain: B3 chain with K82A
B7: GST-Snc2p E60A D61A D64A (M3) (domain or fragment)
chain: B3 chain with E60A, D61A, D64A
B8: GST-Snc2p E60K D61R D64R (M4) (domain or fragment)
chain: B3 chain with E60K, D61R, D64R
B9: GST-Snc2p E51A E54A (M5) (domain or fragment)
chain: B3 chain with E51A, E54A
B10: Snc2p-His6, full-length Snc2p reconstituted into liposomes (natural protein)
chain: T1 sequence with E75R, E79R, E82K
B11: His-tagged Sec6p (pET46-Sec6) (natural protein)
chain: MSSDPLQQVCDLIKGDLSLERVRDIKEQLLKEKSVVEYQLNKESDKYYGEVEESLKLLNLSKNSVTSIKQQINEVNKLGNDNRFAINRYDILFRATKLYETVNTTSSIYDRIYNFVALMEHIERLLVAELAEDALETGCPHLLEIHFLLTSARDFQEQVVVMAKEATEDAQRTVMKLFSRLSGIISKFDKLLDGLTYDIVEMARAEQISLAIRLFKIYDLEEREDLRIEAIRNIIKKKEIEIEKSSIKKLPNSKNTARLQDETPKVIEYPTNKGLYQEIMSGTISTRTAPRGYKHFLINGINNSISEMFGEMREKYVGDQKFDVLDNMDWIFNELIIVKEHIANCCPPHWNIFEVYFDQYYKELHSLITDLVESEPETIIILDILAFDKTFQDTLKQDFGFTKSEVKSVIGDKEKETLFKDYLNLIVVKMTEWIGNLEKAEFDVFLERSTPPHSDSDGLLFLDGTKTCFQMFTQQVEVAAGTNQAKILVGVVERFSDLLTKRQKNWISKISEEIKKQINYNHKYDIDPESITPEDECPGGLVEYLIAVSNDQMKAADYAVAISSKYGKLVSKVYEKQITNHLEGTLDGFAEVAQCSSLGLITLMFDDLRKPYQEIFSKTWYMGSQAQQIADTLDEYLLDIKPQMNSVLFVNFIDNVIGETIIKFLTALSFEHSFKNKNNKFLEAMKRDFEIFYQLFVKVLDGNESKDTLITQNFTVMEFFMDLSCEPIDSILDIWQKYLEVYWDSRIDLLVGILKCRKDVSSSERKKIVQQATEMLHEYRRNMEANGVDREPTLMRRFVLEFEKQ

For one experiment, the target named is B11. Kind of experiment: pull-down.
For the molecule B1, the binding result is recorded as “binds”. Same read-out and setting: as for B2, the entry is “binds”. What is called Kd is a measure of binding affinity in units of concentration. A higher Kd goes with lower affinity. Regarding GERLTSIEDKADNLAISAQGFKRGANRVRKQMWWKDLKMR (domain or fragment) [GST-Snc2p fragment (53–92 aa)], the dissociation constant Kd turned out to be 18 µM. As for B3, binding was characterised by a dissociation constant (Kd) of 13 ± 6 µM. B4: the binding result is recorded as “binds”. On the same count and under the same terms, as for B5, the entry is “binds”. The same measure, in the same setting: next, B6: “binds”; B7: “binds”. Regarding B8, the binding result is given as “binds”. For B9, the binding result was “binds”.

In the next experiment the target is B11. The experiment in a line: […], pH 7.4, 0.5 µg/µl BSA.
Consider B10, for which the binding result is reported as “binds”.

The target in a further experiment is T1, Snc2p-M2-His6 (R75E R79E K82E) …. The experiment in a line: […], pH 7.4, 0.5 µg/µl BSA.
For B11, the “fold reduction in binding against wild-type Snc2p liposomes” value was at least 2 fold.

The values above are taken from PMC3734085 (The Journal of Cell Biology, 2013).
